# According to publication PMC6699109, “A GH51 α-L-arabinofuranosidase from Talaromyces leycettanus strain JCM12802 that selectively drives synergistic lignocellulose hydrolysis” (Microbial Cell Factories, 2019):
# B1: TlAbf51 (Evansstolkia leycettana) (protein)
# chain: MKTLPALAGGLAVAVTYLSGLAFAIDLTVSKTGGNASSPLLYGIMFEDINNSGDGGIHGQLLKNNGFQGNNPGLTAYAAVGNVTLSQDTSNPLSSAITSSLKVSVPPGTTGYVGFANTGYAGVPVVATTYANYFWMKGKYSGTINLRLVGTSSGIVYASHNITVHSTDSQFTYYDTSFTSSASPDGNNEWQLLFDGSQVAGSSLNFGLVQLFPPTYHSRYNGLRNDVASFLEEIKPSFLRFPGGNNLEGASPADRWKWNATIGPVVDRPGRQGDWGYPNTDALGLDEYLYWCEDMGMEPVLAVWSGLSLGGGIVSGSALDPYVDDIMNELEYLLGDMSTAGGRLRAQNGRTEPWPIKHVEVGNEDNLSSGCGTYASRFTQIYNAIHAAYPDITVIASTTDASCLPSSILEGVITDIHHYLNPDQFVALFNEWDNWPRTHPIFVGEYASTHNSDGSQTYWTRMRGSCGEAVYMIGMERNSDIVKMASYAPLLEHFNLAEWSPDLFGLDSSPDSITGSTSYYVQKMFSTNRGSTILPVTSDAGFGPVYWVASVSGSTYYVKLANYGSASETVTINIDGTKSGTLEMLSGAEMGSNYPHNVTITPQTSSVSGSGSFTVTMPAWAVAVLAVS
# notes: secreted from Pichia pastoris GS115 (pPIC9, EcoRI/NotI), purified
# Substrate: O=[N+]([O-])c1ccc(O[C@@H]2O[C@@H](CO)[C@H](O)[C@H]2O)cc1
# Assay: purified protein
# Type: biochemical, Evansstolkia leycettana
# Conditions: 0.1 M McIlvaine buffer pH 3.5, 55 °C, 5 min, 0.1–5 mM substrate
protein,measurement,value
B1,Km,280 ± 10 µM
same,kcat,1600 s⁻¹
